Assay results: patent publication US9463249B2, “Crystalline insulin-conjugates” (SmartCells, Inc., priority 2009, dated 2016)

Experiments:
lectins = assay: Relative lectin binding affinities of saccharide ligands (FIG. 1); conditions: four sugars shown in FIG. 1
[1] = rat, in vivo, iv
Protocol: To determine the elimination rate in the presence of elevated glucose levels, one hour before the start of the experiment one rat cannula was connected to a syringe infusion pump containing a sterile 50% w/v glucose solution. The pump infusion rate was adjusted by the experimenter to ensure that the blood glucose levels in the animal remained above 300 mg/dL at all times during the experiment. Blood glucose was measured using commercially available test strips (Precision Xtra, Abbott Laboratories, Abbott Park, Ill.). […]
(§1) Throughout the experiment, blood glucose was measured using commercially available test strips (Precision Xtra, Abbott Laboratories, Abbott Park, Ill.). Blood from each timepoint was centrifuged at 4 C to collect the serum, and serum insulin or serum conjugate concentrations were subsequently measured with a commercially available ELISA kit (Iso-Insulin ELISA, Mercodia, Uppsala, Sweden). […]
as §1

[2] = Glucose-responsive PK under constant i.v. infusion with i.p. glucose injection at 240 min; parameters: species or system Sprague-Dawley rats; conditions: rat, in vivo, iv
Protocol: In this example, the i.v. elimination rate experiment described in Example 30 was modified from a single i.v. bolus of 0.4 mg conjugate/kg body weight to a continuous i.v. infusion.
A blood sample was taken at t=0 min, after which the constant i.v. infusion was initiated.
Throughout the experiments, blood glucose was measured using commercially available test strips (Precision Xtra, Abbott Laboratories, Abbott Park, Ill.). Blood from each timepoint was centrifuged at 4 C to collect the serum, and serum insulin or serum conjugate concentrations were subsequently measured with a commercially available ELISA kit (Iso-Insulin ELISA, Mercodia, Uppsala, Sweden).

Compound	lectin binding affinity relative to the other sugars (lectins)	effect of sugars on elimination rate, in words [1]	hypoglycemia prior to glucose injection [2]
NCCO[C@H]1O[C@H](CO[C@H]2O[C@H](CO)[C@@H](O)[C@H](O)[C@@H]2O)[C@@H](O)[C@H](O[C@H]2O[C@H](CO)[C@@H](O)[C@H](O)[C@@H]2O)[C@@H]1O [AETM, Man (α-1,3)-Man(α-1.6)-α-1-aminoethylmannopyranoside]	highest affinity of the four sugars shown		
RHI: recombinant human insulin (MW=5808 Da, Sigma Aldrich), unconjugated control		not affected in the presence of sugars	causes significant hypoglycemia prior to glucose injection
